Experiment [1] concerns the target T1, human DLL3 on cells (endogenous on SHP-77, DMS 273, DMS 454; full length human DLL3 by lentivirus on HEK-293T) (human, UniProt Q9NYJ7 27-618).
T1 construct: whole, on cells
T1 sequence (looked up): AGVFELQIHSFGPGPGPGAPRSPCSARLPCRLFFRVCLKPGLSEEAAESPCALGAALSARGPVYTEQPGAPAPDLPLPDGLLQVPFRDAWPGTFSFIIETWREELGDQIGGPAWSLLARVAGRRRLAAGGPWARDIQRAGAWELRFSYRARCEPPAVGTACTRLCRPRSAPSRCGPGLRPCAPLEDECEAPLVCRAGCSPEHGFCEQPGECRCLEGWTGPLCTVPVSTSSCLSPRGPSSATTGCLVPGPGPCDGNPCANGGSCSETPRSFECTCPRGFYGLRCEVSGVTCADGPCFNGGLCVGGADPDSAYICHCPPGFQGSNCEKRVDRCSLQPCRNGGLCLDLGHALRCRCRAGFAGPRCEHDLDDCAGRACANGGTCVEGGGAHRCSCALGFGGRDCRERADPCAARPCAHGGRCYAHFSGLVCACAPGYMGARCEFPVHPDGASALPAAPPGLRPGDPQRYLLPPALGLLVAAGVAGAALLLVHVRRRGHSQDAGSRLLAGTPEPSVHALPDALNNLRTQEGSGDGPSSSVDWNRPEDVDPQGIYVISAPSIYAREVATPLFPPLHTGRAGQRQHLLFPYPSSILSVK
The experiment can be described thus: flow cytometry on DMS 273, DMS 454 and SHP-77 cells, 2 ug/ml antibody, PE anti-mouse IgG.

Experiment [2] addresses T2, full length human DLL3 with N-terminal HA tag, expressed on CHO cells (human, UniProt Q9NYJ7 27-618).
T2 construct: also called Human DLL3 complete ECD
T2 sequence: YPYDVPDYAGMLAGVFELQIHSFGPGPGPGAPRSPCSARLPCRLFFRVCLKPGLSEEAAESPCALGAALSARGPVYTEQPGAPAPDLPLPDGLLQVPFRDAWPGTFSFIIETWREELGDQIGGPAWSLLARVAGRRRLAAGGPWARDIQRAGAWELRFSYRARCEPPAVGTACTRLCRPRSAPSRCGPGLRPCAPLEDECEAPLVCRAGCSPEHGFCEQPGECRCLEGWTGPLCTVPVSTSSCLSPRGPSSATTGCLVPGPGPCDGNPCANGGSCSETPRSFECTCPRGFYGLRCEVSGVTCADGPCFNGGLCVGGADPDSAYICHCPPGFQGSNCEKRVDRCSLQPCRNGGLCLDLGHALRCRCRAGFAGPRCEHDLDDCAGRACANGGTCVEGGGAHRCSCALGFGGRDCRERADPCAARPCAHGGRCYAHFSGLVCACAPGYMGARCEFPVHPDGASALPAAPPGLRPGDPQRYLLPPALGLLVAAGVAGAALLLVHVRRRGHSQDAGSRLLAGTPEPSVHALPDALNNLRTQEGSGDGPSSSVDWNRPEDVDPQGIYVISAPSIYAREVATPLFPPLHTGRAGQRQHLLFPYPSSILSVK
The experiment can be described thus: flow cytometry on CHO cells with full length and truncated human DLL3; column Binds to DLL3 Domain.

The next experiment deals with T3, EGF5-EGF6.
T3 construct: also called Human DLL3 EGF5-EGF6, N-terminal HA tag, on CHO cells
T3 single chain: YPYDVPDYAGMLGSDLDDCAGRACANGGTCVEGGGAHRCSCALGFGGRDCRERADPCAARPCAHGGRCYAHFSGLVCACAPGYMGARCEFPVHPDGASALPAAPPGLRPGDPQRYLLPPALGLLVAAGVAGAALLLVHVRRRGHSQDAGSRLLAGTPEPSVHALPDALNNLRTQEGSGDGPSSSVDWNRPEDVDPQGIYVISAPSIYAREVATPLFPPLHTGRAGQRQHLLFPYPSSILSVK
The experiment can be described thus: flow cytometry on CHO cells with the HA tagged DLL3 construct, PE anti-mouse IgG.

The target in the next experiment is T4, EGF6.
T4 construct: also called Human DLL3 EGF6, N-terminal HA tag, on CHO cells
T4 single chain: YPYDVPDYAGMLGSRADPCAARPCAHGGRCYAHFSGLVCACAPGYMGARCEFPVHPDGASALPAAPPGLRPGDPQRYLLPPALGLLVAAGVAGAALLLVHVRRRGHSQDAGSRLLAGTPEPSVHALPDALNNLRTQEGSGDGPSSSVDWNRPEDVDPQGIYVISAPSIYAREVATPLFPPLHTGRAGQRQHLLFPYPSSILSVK
The experiment is described as above.

For experiment [3], the target named is T5, human DLL3 extracellular domain (ECD) with C-terminal 8xHis tag and Avi tag (human, UniProt Q9NYJ7 27-492).
T5 construct: extracellular domain; Expressed in Expi293, purified by IMAC and SEC; also called huDLL3; not shown: Avi tag
T5 sequence: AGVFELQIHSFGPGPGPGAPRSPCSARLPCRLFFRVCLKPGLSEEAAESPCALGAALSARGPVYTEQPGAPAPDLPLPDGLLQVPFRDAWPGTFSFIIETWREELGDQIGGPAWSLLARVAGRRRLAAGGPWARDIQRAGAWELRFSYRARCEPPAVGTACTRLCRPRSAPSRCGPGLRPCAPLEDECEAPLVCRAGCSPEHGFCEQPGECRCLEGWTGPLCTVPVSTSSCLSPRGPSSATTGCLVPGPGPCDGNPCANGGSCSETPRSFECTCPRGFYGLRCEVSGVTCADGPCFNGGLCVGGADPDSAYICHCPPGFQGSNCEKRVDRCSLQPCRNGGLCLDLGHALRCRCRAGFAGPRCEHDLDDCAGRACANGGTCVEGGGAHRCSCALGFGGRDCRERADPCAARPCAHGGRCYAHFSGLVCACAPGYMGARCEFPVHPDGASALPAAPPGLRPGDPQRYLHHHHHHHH
The experiment can be described thus: SPR (Biacore), 37 C; IgG captured on chip, human DLL3 ECD in solution; 1:1 Langmuir fit.

Another experiment has as its target T6, EGF2-EGF6.
T6 construct: also called Human DLL3 EGF2-EGF6, N-terminal HA tag, on CHO cells
T6 single chain: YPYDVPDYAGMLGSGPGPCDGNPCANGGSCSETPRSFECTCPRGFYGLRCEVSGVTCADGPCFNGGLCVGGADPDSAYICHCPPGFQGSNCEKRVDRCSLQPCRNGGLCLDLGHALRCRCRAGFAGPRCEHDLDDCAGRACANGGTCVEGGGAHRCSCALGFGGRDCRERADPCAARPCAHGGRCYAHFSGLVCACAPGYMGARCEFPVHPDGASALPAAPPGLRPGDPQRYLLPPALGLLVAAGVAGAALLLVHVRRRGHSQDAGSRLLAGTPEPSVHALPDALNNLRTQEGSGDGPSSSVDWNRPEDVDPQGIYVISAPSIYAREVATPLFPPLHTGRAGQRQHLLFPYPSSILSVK
The experiment can be described thus: flow cytometry on CHO cells with the HA tagged DLL3 construct, PE anti-mouse IgG.

The next experiment deals with T7, EGF1-EGF6.
T7 construct: also called Human DLL3 EGF1-EGF6, N-terminal HA tag, on CHO cells
T7 single chain: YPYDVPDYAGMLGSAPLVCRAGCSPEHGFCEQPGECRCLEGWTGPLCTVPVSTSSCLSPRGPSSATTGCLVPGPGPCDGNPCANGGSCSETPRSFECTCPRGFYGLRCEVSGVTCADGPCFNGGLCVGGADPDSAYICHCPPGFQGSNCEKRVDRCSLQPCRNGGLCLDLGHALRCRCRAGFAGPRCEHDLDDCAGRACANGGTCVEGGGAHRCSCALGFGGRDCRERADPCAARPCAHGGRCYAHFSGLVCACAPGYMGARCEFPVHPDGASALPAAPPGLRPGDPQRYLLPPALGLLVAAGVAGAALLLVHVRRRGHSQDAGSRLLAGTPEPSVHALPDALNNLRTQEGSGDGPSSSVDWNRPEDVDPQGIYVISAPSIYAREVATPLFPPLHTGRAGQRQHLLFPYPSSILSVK
The experiment is described as above.

The target in the next experiment is T8, DSL-EGF6.
T8 construct: also called Human DLL3 DSL-EGF6, N-terminal HA tag, on CHO cells
T8 single chain: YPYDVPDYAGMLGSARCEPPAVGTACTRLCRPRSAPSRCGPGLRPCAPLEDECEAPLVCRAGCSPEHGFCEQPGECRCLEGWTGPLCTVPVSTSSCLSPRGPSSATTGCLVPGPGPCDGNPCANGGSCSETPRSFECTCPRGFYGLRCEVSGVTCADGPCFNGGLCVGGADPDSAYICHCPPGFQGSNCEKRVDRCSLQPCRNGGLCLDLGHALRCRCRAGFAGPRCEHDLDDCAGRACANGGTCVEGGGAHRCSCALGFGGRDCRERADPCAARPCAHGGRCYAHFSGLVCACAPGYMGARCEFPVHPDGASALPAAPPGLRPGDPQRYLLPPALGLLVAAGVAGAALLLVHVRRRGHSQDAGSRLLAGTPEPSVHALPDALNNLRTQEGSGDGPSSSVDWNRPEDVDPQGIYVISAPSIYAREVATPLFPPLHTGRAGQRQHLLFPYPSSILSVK
The description is as above.

Another experiment concerns the target T9, EGF4-EGF6.
T9 construct: also called Human DLL3 EGF4-EGF6, N-terminal HA tag, on CHO cells
T9 single chain: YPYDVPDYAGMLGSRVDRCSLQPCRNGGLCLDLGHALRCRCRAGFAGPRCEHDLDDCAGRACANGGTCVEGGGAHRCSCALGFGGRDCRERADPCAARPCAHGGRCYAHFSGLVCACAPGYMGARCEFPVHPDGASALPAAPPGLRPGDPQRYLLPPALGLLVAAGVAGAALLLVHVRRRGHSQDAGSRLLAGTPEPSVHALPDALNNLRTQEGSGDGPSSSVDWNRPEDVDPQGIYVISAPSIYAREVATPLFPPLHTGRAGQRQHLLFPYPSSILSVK
Described as above.

Another experiment concerns the target T10, EGF3-EGF6.
T10 construct: also called Human DLL3 EGF3-EGF6, N-terminal HA tag, on CHO cells
T10 single chain: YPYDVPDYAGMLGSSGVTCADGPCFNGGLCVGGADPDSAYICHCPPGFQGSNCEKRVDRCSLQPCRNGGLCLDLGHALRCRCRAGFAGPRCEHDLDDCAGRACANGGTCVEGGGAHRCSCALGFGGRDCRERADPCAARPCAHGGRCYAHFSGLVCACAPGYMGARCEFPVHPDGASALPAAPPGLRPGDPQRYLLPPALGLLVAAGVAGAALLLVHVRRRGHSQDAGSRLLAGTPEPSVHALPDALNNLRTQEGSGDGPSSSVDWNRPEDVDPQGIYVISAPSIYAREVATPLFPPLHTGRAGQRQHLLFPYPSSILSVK
The description is as above.

B1: anti-DLL3 antibody 4E6 (antibody, V domains shown)
VH: QVQLQESGPGLVKPSETLSLTCTVSSDSISSYYWSWIRQPPGKGLEWISYIYYSGISNYNPSLKSRVSISVDTSKNQFSLRLSSVTAADTAVYYCARISVAGFFFDNWGQGTLVTVSS
VL: EIMLTQSPDTLSLSPGERATLSCRASQSVSSSYLAWYQQKPGQAPRLLIYGASSRAAGVPDRFSGSGSGTDFTLTISRLAPEDFVVYYCQQYGISPLTFGGGTKVEIK
In the case of B1, the binding result in [1] and in experiment [2] was “binds” each time.

B2: anti-DLL3 antibody 10G1-K (antibody, V domains shown)
VH: EVQLLESGGGLVQPGGSLRLSCAASGFTFSSYAMNWVRQAPGKGLEWVSTISGSGGSTYYADSVKGRFTISRDNSKNTLYLQMNSLRAEDTAVFYCAIDPEYYDILTGGDYWGQGTLVTVSS
VL: DIQMTQSPSAMSASVGDRVTITCRASQGISNYLAWFQQKPGKVPKRLIYAASSLQSGVPSRFSGSGSGTEFTLTISSLQPEDFATYFCLQHDSFPLTFGGGTKVEIK
Turning to B2, the binding result in [1] and in experiment [2] was “binds” in each case.

B3: anti-DLL3 antibody 5E12 (IgG) (antibody, V domains shown)
VH: EVQLVESGGGLVQPGGSLRLSCAASGFTFSSYDMHWVRQATGKGLEWVSAIGPAGDTYYPGSVKGRFTISRENAKNSLYLQMNSLRAGDTAVYYCARADPPYYYYGMDVWGQGTTVTVSS
VL: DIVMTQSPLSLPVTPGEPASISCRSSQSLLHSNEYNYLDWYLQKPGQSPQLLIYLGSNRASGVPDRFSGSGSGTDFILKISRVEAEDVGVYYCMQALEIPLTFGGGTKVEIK
notes: Full-length monoclonal antibody (IgG)
As for B3, the binding result with EGF5-EGF6 is given as “no binding”; in the experiment with EGF6, “no binding”; with EGF2-EGF6, “no binding”; with EGF1-EGF6 it was “no binding”; with DSL-EGF6, “binds”; with EGF4-EGF6, “no binding”. Also, the binding result in the experiment with EGF3-EGF6 was “no binding”. In experiment [3], this molecule yielded a Kd of 7.76 nM.

B4: 3E4 (antibody, V domains shown)
VH: QVQLQQWGAGLLKPSETLSLTCAVYGGSFSGYYWSWIRQPPGKGLEWIGEIIHSGSSNYNPSLKSRVSISVDTSKNQFSLKLSSVTAADTAVYYCSRGEYGSGSRFDYWGQGTLVTVSS
VL: AIQMTQSPSSLSASVGDRVAITCRASQGIRDDLGWYQQKPGKAPKLLIYAASSLQSGVPSRFSGSRSDTDFTLTISSLQPEDFATYYCLQDYDYPLTFGGGTKVEIK
notes: also called anti-DLL3 antibody 3E4 (purified, mouse IgG2A backbone)
For B4, in experiment [1], the binding result is “binds”.

(Values after patent US20230287120A1 (ALLOGENE THERAPEUTICS, published 2023).)
